Experimental data taken from patent publication US6191256A, “Recombinant factor VIII binding peptides” (Bayer Corporation, priority 1998, dated 2001).

How the values were obtained:
[1] = target: T1, rFVIII (Homo sapiens, UniProt P00451); test: confirmatory binding assay in filtration plate format using 14C-rFVIII; conditions: Table 4; for Total dpm / beads % total / beads dpm: 14C-rFVIII 30 nM; for 0.5M CaCl2 % total / 2% acetic acid % total / 2% acetic acid dpm / 0.5M CaCl2 dpm: 14C-rFVIII 30 nM in PPF, 5 mg beads; for 0.5M CaCl2 dpm: 5.0 × 10^15 dpm/mole, 5° C.; for beads % total / beads dpm: remaining on beads after washes
Experimental: Confirmatory binding assays were performed in a filtration plate format using individual peptide sequences synthesized directly onto the TOYOPEARL AF amino 650 M resin, at a final substitution density of 0.1 mmole/g resin. A slurry of each individual peptide sequence was prepared using deionized water. A 100 μL volume of beads (corresponding to 5 mg) was loaded into each well of the filtration plate (MULTISCREEN Assay System, Millipore, Bedford, Mass.), in triplicate for each peptide sequence. Beads were washed with 20% ethanol and incubated overnight with equilibration buffer (20 mM imidazole, 10 mM
CaCl2, 0.105 M NaCl, pH 6.9). A 100 μL aliquot of ^14 C-rFVIII diluted in neat PPF to a final concentration of 20-30 nM was loaded into each well and incubated for 1 hour at 5° C. Filtrate (unbound ^14 C-rFVIII) was collected into a microtiter plate and transferred to liquid scintillation vials for dpm counting. Beads were washed sequentially with: 100 μL of equilibration buffer for 15 minutes, 200 μL of 0.5 M CaCl2 (in equilibration buffer), 200 μL of 1.0 M CaCl2 (in equilibration buffer), and 200 uL of 2% by volume glacial acetic acid in water, for 1 hour each at 5° C. Scintillation counting on the unbound ^14 C-rFVIII (plus equilibration buffer wash), salt and acid washes, as well as on the beads was then performed and the overall mass balance calculated.
Beads presenting the appropriate peptide sequence on the surface were placed in the filtration plate wells and incubated sequentially with equilibration buffer, ^14 C-rFVIII in PPF, equilibration buffer, 0.5 M CaCl2 wash, 1.0 M CaCl2 wash and 2% acetic acid wash. After each incubation, filtrate was collected in microtiter plates, and dpm counted on each
In Table 3, the ^14 C-rFVIII was loaded at 20 nM (in PPF) and the radiolabeling yield was at 3.0×10^15 dpm/mole. In Table 4, the ^14 C-rFVIII was loaded at 30 nM (in PPF) and the radiolabeling yield was at 5.0×10^15 dpm/mole.

[2] = target: T1, rFVIII; test: column format binding assay, rFVIII mass per fraction by sandwich capture ELISA for the light chain; conditions: for 0.5M CaCl2 ng / 0.5M CaCl2 % total / 2% acetic acid % total / 2% acetic acid ng / Flow through % total / Total ng / Flow through ng: Table 6; for Flow through ng: 10,000 ng rFVIII in 1:10 PPF injected, 5° C.; for ELISA results % total: Table 9, 0.5M CaCl2 fraction
Experimental: (§1) Immunoassay on rFVIII using a sandwich capture ELISA for the light chain and activity assay using a chromogenic substrate (COATEST Factor VIII kit from diaPharma, Franklin, Ohio) were performed on a BIOMEK® automated liquid handling system from Beckman Instruments (Brea, Calif.). The monoclonal antibody for rFVIII light chain (known as C7F7), the ELISA assay standard (lot A70K019), and the control for the activity assay (lot A70A001 @ 140 IU/mL) were from the Bayer Corporation (Berkeley, Calif.). The standard for the activity assay was at 11.2 IU/mL (Bayer, Clayton, N.C.), calibrated against the MEGA 1 standard, which is a working standard used by American manufacturers for measuring factor VIII activity (21).
(§2) Additional confirmatory binding assay and performance of the discovered binding peptides in terms of total rFVIII and activity recovery was performed in a column chromatographic format on a microbore HPLC. The resins were packed into 0.4×5 cm columns (Thomson, Springfield, Va.) and tested on the MICHROM HPLC system (Michrom BioResources, Auburn, Calif.). The elution program for the trials utilized the following method. The column was pre-equilibrated with equilibration buffer (as above). A 1 mL aliquot of 1:10 PPF followed by 1 mL of rFVIII (10,000 ng) in 1:10 PPF were injected and allowed sufficient time to flow through the column using equilibration buffer. The column was then washed with step elutions of 0.5 M and 1.0 M CaCl2 in equilibration buffer. The column was exposed to equilibration buffer. Remaining protein was eluted with 2% by volume glacial acetic acid in water. Columns were kept at 5° C. during the chromatographic runs. For each 1 mL injection (equilibration buffer, 1:10 PPF and 10,000 ng rFVIII in 1:10 PPF), the chromatographic cycle was run for 45 minutes (injection, flow through, 0.5 M CaCl2, 1.0 M CaCl2, equilibration buffer, 2% acetic acid, equilibration buffer).
(§3) A Gilson FC204 fraction collector at the HPLC outlet collected individual eluates for further analysis. Each collection tube had 100 μL hSA added to it to stabilize the rFVIII. Fractions collected from the 2% acetic acid eluates were neutralized with 2 M Tris, pH 10.5 to bring the pH to neutrality. The fractions were analyzed for total protein by the integration of the absorbance at 280 nm, for rFVIII by immunoassay (sandwich capture ELISA), and for rFVIII activity by a chromogenic substrate assay.
Tables 5 and 6 present the results from the additional confirmatory binding assays using the column format. The chromatography method was run by injecting the samples at a flow rate of 865 μL/min (413 cm/hr). In order to provide a 10 minute residence time of sample in the column the flow was decreased to 17 μL/min (10 cm/hr) upon injection.
Following the incubation, the flow was set at 865 μL/min (413 cm/hr) for the step clutions of 0.5 M CaCl2, 1.0 M CaCl2, and 2% acetic acid. Results are expressed in terms of the total mass of rFVIII in each fraction, as determined by the sandwich capture ELISA assay for the rFVIII light chain. […] A control using a non-binding peptide sequence (IGF) is also shown for comparison--in this case, 95% of the rFVIII loaded to the column was collected in the flow through fraction. Additional controls with no

[3] = target: T1, rFVIII; test: rFVIII activity recovery from peptide columns by chromogenic substrate assay (COATEST); format: biochemical; conditions: for 0.5M CaCl2 IU / 2% acetic acid % total / 2% acetic acid IU / Flow through % total / Total IU / 0.5M CaCl2 % total / Flow through IU: Table 8; for 0.5M CaCl2 % total: activity recovery; for Flow through IU: rFVIII activity in fraction; for Activity results % total: Table 9, 0.5M CaCl2 fraction
Experimental: as §1, §2, §3
Tables 7 and 8 list the sequences for which activity recovery was determined by a chromogenic substrate assay (COASTEST kit, diaPharma, Franklin, Ohio). Chromatographc conditions are the same as described above for the results from Tables 5 and 6. It can be

T1 sequence (P00451 20-2351): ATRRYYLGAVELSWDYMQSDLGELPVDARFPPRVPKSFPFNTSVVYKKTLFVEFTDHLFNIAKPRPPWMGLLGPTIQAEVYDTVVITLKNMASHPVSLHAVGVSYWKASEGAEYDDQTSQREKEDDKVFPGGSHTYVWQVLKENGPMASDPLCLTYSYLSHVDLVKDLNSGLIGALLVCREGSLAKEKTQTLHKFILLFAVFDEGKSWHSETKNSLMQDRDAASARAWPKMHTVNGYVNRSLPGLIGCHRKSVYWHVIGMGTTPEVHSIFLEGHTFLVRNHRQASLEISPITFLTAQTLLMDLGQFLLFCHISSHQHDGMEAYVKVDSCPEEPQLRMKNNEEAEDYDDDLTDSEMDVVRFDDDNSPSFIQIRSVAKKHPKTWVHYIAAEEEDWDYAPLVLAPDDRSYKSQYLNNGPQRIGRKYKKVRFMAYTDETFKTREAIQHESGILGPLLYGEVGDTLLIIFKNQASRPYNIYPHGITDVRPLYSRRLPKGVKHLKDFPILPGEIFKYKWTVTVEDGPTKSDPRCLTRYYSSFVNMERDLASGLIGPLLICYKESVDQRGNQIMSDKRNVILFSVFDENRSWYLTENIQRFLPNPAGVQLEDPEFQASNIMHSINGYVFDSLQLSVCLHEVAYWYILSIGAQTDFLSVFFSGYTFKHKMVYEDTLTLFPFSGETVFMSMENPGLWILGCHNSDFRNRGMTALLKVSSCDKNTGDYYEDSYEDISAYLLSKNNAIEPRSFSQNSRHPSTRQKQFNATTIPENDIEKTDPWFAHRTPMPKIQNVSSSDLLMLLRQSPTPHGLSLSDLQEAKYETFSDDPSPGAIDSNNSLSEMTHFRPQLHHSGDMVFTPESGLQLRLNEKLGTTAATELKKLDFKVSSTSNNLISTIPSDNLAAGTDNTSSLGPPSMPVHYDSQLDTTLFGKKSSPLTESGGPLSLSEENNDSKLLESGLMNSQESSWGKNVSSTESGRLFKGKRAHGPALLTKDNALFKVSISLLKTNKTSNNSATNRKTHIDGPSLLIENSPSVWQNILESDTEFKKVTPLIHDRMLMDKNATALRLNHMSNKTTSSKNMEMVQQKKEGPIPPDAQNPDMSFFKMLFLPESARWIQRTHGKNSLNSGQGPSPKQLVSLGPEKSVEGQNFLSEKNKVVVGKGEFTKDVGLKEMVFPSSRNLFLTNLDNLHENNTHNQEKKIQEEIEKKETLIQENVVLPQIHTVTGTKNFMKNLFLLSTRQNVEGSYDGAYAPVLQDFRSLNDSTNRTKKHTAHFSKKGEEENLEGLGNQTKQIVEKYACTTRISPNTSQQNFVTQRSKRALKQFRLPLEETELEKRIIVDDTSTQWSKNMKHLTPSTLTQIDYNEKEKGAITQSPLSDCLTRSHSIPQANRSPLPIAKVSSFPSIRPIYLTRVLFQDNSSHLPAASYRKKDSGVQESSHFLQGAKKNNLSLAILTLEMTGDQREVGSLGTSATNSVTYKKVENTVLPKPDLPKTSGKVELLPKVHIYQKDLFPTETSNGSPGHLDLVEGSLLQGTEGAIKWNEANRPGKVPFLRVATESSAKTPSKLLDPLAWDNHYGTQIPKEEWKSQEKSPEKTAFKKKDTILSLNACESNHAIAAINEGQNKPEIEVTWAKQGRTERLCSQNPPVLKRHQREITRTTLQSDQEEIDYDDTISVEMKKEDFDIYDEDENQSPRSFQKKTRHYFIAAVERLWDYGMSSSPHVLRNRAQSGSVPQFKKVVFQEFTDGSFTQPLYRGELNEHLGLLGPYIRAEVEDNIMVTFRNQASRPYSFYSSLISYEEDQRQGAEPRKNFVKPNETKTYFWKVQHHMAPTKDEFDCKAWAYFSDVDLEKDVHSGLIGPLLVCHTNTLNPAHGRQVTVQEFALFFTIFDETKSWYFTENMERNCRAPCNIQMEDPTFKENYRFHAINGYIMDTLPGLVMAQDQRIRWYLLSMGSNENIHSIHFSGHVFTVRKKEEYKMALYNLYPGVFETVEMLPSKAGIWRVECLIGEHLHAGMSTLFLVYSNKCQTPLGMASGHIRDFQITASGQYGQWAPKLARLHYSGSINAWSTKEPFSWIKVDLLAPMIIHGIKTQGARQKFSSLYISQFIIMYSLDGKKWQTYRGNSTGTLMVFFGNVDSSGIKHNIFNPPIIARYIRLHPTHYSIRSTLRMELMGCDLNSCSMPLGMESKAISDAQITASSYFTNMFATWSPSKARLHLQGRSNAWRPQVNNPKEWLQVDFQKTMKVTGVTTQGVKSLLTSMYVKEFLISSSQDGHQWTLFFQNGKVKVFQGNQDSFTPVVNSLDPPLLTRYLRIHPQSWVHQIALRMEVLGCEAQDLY
T1 sequence (P00451 1668-2351 limits assumed): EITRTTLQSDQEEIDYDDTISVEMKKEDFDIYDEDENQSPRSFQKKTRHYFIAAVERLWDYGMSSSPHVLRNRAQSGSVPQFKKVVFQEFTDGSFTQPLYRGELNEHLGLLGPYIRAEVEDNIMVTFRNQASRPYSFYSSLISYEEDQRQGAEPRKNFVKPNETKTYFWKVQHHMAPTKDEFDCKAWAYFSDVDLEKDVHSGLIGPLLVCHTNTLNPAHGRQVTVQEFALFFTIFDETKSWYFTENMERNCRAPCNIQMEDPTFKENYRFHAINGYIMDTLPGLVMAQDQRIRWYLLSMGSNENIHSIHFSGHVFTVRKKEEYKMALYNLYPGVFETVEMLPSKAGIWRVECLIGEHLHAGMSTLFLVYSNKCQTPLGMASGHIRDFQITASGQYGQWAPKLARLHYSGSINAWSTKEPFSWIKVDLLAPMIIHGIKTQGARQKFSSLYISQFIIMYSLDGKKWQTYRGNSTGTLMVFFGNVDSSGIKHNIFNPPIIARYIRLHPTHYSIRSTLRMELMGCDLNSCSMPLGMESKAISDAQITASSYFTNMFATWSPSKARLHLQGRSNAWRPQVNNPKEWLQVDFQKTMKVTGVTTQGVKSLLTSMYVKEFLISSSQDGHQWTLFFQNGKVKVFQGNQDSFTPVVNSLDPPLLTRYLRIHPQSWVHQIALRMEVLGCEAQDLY

Total dpm [1] [dpm] | 0.5M CaCl2 % total [1] [%] | 2% acetic acid % total [1] [%] | 2% acetic acid dpm [1] [dpm] | 0.5M CaCl2 dpm [1] [dpm] | beads % total [1] [%] | beads dpm [1] [dpm] | 0.5M CaCl2 ng [2] [ng] | 0.5M CaCl2 % total [2] [%] | 2% acetic acid % total [2] [%] | 2% acetic acid ng [2] [ng] | Flow through % total [2] [%] | Total ng [2] [ng] | Flow through ng [2] [ng] | ELISA results % total [2] [%] | 0.5M CaCl2 IU [3] [IU] | 2% acetic acid % total [3] [%] | 2% acetic acid IU [3] [IU] | Flow through % total [3] [%] | Total IU [3] [IU] | Substance | further results
3764 | 93 | 5 | 188 | 3491 | 2 | 85 | 11023 | 98 | 1 | 135 | 0 | 11272 | 0 | 98 | 53.1 | 0 | 0.1 | 0 | 54.3 | 10 (AFVRSL) [compound 10] | 0.5M CaCl2 % total [3]: 98%; Flow through IU [3]: 0.0 IU; Activity results % total [3]: 98%
2208 | 48 | 23 | 518 | 1049 | 29 | 641 | 7481 | 78 | 11 | 1069 | 7 | 9641 | 639 | 78 | 54.4 | 0 | 0.0 | 4 | 60.4 | 11 (NAIFQW) [compound 11] | 0.5M CaCl2 % total [3]: 90%; Flow through IU [3]: 2.5 IU; Activity results % total [3]: 90%
3557 | 90 | 8 | 271 | 3191 | 3 | 95 | 9223 | 96 | 2 | 188 | 0 | 9579 | 0 | 96 | 45.1 | 0 | 0.08 | 0 | 46.6 | 12 (QRLIQF) [compound 12] | 0.5M CaCl2 % total [3]: 97%; Flow through IU [3]: 0.0 IU; Activity results % total [3]: 97%
4096 | 95 | 3 | 135 | 3884 | 2 | 77 | 8018 | 90 | 1 | 87 | 7 | 8863 | 641 | 90 | 48.3 | 0 | 0.09 | 2 | 50.3 | 13 (KAQETW) [compound 13] | 0.5M CaCl2 % total [3]: 96%; Flow through IU [3]: 0.8 IU; Activity results % total [3]: 96%
